We go through one substance from patent US8093212B2, “Methods of treating nerve-related vision disorders by an insulinomimetic agent” (The Penn State Research Foundation, priority 2002, dated 2012).

In one data set the test system is Akt. The data set is described as follows: Intraportal insulin injection: retinal Akt (serine 473) phosphorylation Western blot. In kind it is in vivo, Sprague-Dawley rats. Particulars: retina, 45 minutes post-injection, 500 μg insulin bolus via portal vein. The method, then: (§1) Intraportal insulin injection was performed to determine if a single bolus insulin injection, and therefore an acute elevation in circulating insulin, could activate retinal insulin receptors (IR) in vivo as it does in other tissues. Intraportal insulin injection was conducted as follows. Male Sprague-Dawley rats (Charles River, Mass.) weighing 200 350 g were fasted 18 hours prior to being anesthetized with a 10:1 ketamine:xylazine cocktail (53.5 mg/kg ketamine and 5.33 mg/kg xylazine) administered by intramuscular injection. The fasted rats were administered a 500 μg bolus of insulin, nothing (sham), or vehicle (0.9% saline) via the portal vein. […]
(§2) Tissue lysates were immunoprecipitated and immunoblotted as described by Barber et al. (2001, J. Biol. Chem. 276: 32814 32831). Tissues were homogenized in an immunoprecipitation (IP) lysis buffer (consisting of 50 mM HEPES, pH 7.3, 137 mM NaCl, 1 mM MgCl2, 2 mM NaVO4, 10 mM Na2H2P2O7, 10 mM NaF, 2 mM EDTA, 2 mM PMSF, 10 mM benzamidine, 10% glycerol, 1% NP-40, and 1 protease inhibitor tablet (Boehringer-Mannheim) per 10 mL of buffer. Homogenates were rocked 15 minutes at 4° C. and then centrifuged at 14,000 rpm at 4° C. Prior to immunoprecipitation and immunoblotting, the resulting supernatant was subjected to protein assay (Bio-Rad) and quantification. […]
For orientation: In western blotting, separated proteins are transferred to a membrane and probed.

Data set [1] concerns the target T1, insulin-like growth factor I receptor (IGF-IRβ) (Rattus norvegicus, UniProt P24062).
T1 construct: from tissue; host or cells: rat retinal explants
Put plainly: Retinal explants: IGF-IRβ tyrosine phosphorylation. In kind it is cell-based. The method, then:
(§3) A tissue explant culture system was used to characterize insulin-signaling transduction in retina without the hindrance of the blood retinal barrier present in whole animal models. Such a tissue explant culture system was developed as follows. Rats as described in Examples 1 and 2 were anesthetized using sodium pentobarbital ([…]), and then decapitated upon loss of motor reflexes. Rat retinas were removed by cutting across the cornea, removing the lens, and squeezing the eyeball to rapidly extract the retina. Retinas were pre-incubated in MEM (Sigma) supplemented with 5 mM pyruvate and 10 mM HEPES for 15 minutes at 37° C., 5% CO2, and with gentle shaking. Ten nM insulin or vehicle was added following pre-incubation. At 2, 5, 15, and 30 minutes after insulin addition, retinas were snap-frozen in liquid nitrogen for future use.
Retinas were treated with either 1.3 nM IGF-1 or 0, 1, 10, 100, and 1000 nM insulin, and then retinal lysates were immunoprecipitated with an insulin-like growth factor I receptor (IGF-IRβ)-specific antibody, followed by PY Western blotting (shown in FIG. 6). The IGF1-R was immunoprecipitated and PY Western blotting performed as described above.

The test system of data set [2] is IR and Akt kinase pathway. The data set is described as follows: Subconjunctival insulin administration: retinal IR and Akt kinase pathway activation. In kind it is in vivo, Sprague-Dawley rats.
The conditions of data set [3]: 0.0325 U/100 g insulin, subconjunctival space. An excerpt:
This route of administration bypasses the BRB for a more direct route of insulin action on retina. […] The retina was processed for IRβ PY content as described in Example 1.

Data set [4] addresses T2, insulin receptor beta-subunit (IRβ) (Rattus norvegicus, UniProt P15127). Put plainly: Retinal tissue explant culture: IRβ tyrosine phosphorylation. In kind it is cell-based. More on the design: from tissue; host or cells: rat retinal explants. Particulars: 10 nM insulin. The method, then: as §3
To examine the time course of insulin signaling events in the tissue, insulin-treated retinas were compared to retinas that received vehicle (0.9% saline) and to untreated retinas. Tissues were analyzed by immunoprecipitation and Western blotting as described in Example 1.

Data set [5] concerns the target T2, insulin receptor beta-subunit (IRβ). Put plainly: Intraportal insulin injection: muscle IRβ tyrosine phosphorylation (PY Western blot). In kind it is in vivo, Sprague-Dawley rats. As to conditions: 500 μg insulin bolus via portal vein. More on the design: hindquarter skeletal muscle and retina were snap-frozen under liquid nitrogen; from tissue; host or cells: rat retina. The method, then: Intraportal insulin injection was performed to determine if a single bolus insulin injection, and therefore an acute elevation in circulating insulin, could activate retinal insulin receptors (IR) in vivo as it does in other tissues. Intraportal insulin injection was conducted as follows. Male Sprague-Dawley rats (Charles River, Mass.) weighing 200 350 g were fasted 18 hours prior to being anesthetized with a 10:1 ketamine:xylazine cocktail (53.5 mg/kg ketamine and 5.33 mg/kg xylazine) administered by intramuscular injection. The fasted rats were administered a 500 μg bolus of insulin, nothing (sham), or vehicle (0.9% saline) via the portal vein. At 15, 30, 45 and 60 minutes post injection (shown in FIG. 2A), hindquarter skeletal muscle and retina were snap-frozen under liquid nitrogen, and then stored at −80° C. pending analysis by immunoprecipitation and immunoblotting. There was no difference in insulin receptor beta-subunit (IRβ) phosphorylation between vehicle (V) and insulin (I) injection.
Tissue lysates were immunoprecipitated and immunoblotted as described by Barber et al. (2001, J. Biol. Chem. 276: 32814 32831). Tissues were homogenized in an immunoprecipitation (IP) lysis buffer (consisting of 50 mM HEPES, pH 7.3, 137 mM NaCl, 1 mM MgCl2, 2 mM NaVO4, 10 mM Na2H2P2O7, 10 mM NaF, 2 mM EDTA, 2 mM PMSF, 10 mM benzamidine, 10% glycerol, 1% NP-40, and 1 protease inhibitor tablet (Boehringer-Mannheim) per 10 mL of buffer. Homogenates were rocked 15 minutes at 4° C. and then centrifuged at 14,000 rpm at 4° C. Prior to immunoprecipitation and immunoblotting, the resulting supernatant was subjected to protein assay (Bio-Rad) and quantification.
Immunoprecipitations were performed as follows. […] Fifty μg of protein per sample were analyzed by SDS-polyacrylamide gel electrophoresis (SDS-PAGE). […] Positive signals were detected with […] (ECL) kits (Cell Signaling) and electrochemifluoresence (ECF) kits (Amersham) each performed according to each manufacturer's protocol. […]

Data set [6] shares this target. Put plainly: Intraportal insulin injection: retina IRβ tyrosine phosphorylation (PY Western blot). In kind it is in vivo, Sprague-Dawley rats. More on the design: hindquarter skeletal muscle and retina were snap-frozen under liquid nitrogen; from tissue; host or cells: rat retina. As to conditions: 500 μg insulin bolus via portal vein, fasted rats. The method, then: as §1, §2

Entries after “also recorded” stand apart in the source; their conditions may differ.

T2 sequence (P15127 764-1383 limits assumed): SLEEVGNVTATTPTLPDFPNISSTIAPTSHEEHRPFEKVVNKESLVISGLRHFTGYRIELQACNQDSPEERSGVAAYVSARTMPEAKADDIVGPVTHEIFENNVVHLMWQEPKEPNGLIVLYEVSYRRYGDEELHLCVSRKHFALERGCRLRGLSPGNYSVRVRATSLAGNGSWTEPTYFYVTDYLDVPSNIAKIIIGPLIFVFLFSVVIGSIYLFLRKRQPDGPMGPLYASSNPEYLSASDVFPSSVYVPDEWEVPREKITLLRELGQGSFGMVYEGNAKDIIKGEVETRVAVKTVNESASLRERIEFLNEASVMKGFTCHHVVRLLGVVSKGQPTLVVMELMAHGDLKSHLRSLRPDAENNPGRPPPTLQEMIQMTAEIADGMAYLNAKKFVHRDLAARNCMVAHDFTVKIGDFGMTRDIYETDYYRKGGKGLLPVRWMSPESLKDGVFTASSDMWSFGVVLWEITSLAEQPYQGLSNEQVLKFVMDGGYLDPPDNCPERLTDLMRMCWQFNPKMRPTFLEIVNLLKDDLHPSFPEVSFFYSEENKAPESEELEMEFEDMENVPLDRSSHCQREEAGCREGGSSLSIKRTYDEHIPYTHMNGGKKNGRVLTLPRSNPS
T2 sequence (P15127 27-759 limits assumed): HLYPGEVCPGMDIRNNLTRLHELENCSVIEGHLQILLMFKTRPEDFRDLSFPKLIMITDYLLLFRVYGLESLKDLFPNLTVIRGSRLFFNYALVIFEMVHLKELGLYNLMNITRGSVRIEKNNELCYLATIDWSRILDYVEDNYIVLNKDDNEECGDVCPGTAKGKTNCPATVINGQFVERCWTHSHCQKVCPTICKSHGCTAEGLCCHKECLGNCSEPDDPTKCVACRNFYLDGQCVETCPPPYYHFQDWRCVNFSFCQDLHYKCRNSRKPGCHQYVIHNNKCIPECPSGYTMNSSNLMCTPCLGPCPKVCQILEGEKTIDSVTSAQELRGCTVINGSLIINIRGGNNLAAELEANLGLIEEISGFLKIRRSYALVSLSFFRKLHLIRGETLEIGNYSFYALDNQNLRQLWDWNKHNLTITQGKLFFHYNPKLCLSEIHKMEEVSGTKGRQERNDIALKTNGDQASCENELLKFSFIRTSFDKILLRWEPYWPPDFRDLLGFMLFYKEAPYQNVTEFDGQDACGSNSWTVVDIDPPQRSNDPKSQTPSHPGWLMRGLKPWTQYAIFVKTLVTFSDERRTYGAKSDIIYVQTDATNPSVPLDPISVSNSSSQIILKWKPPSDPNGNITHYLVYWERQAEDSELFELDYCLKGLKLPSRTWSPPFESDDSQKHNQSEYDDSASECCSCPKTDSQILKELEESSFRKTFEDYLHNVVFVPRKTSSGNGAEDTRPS
T1 sequence (P24062 742-1370 limits assumed): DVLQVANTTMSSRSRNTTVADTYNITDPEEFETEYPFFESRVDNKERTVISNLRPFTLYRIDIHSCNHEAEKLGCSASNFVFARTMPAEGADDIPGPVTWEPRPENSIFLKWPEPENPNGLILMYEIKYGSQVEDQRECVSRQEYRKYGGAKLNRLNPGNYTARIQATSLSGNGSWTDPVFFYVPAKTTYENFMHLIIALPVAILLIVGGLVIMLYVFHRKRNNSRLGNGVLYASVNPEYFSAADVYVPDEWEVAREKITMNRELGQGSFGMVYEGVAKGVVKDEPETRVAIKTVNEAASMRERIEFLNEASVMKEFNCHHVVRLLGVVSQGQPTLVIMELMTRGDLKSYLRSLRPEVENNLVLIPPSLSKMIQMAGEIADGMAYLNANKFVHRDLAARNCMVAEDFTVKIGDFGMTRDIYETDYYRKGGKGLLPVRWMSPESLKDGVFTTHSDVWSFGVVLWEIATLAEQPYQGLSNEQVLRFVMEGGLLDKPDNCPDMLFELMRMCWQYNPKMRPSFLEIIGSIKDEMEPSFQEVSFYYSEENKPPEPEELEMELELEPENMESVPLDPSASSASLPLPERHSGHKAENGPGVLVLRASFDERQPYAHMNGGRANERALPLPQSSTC
T1 sequence (P24062 31-737 limits assumed): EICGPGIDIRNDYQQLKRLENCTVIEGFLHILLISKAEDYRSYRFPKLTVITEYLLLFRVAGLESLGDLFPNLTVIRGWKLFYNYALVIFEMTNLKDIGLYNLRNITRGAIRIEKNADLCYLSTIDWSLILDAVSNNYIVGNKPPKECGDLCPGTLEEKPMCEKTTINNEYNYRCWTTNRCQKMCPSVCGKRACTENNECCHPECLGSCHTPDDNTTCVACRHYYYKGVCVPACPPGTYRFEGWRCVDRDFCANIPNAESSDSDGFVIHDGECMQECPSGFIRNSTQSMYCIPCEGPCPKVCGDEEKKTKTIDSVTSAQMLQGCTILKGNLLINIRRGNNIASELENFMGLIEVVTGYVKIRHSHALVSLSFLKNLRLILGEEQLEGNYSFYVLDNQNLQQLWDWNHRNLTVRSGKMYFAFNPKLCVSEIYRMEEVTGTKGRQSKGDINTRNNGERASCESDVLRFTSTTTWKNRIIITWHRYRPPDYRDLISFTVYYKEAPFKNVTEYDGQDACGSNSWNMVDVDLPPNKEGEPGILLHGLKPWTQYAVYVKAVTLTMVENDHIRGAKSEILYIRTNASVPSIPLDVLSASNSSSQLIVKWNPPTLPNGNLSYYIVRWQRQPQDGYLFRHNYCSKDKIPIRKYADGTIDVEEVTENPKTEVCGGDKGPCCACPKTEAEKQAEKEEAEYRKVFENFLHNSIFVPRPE

For the substance insulin, in the data set with Akt, the “increase in phosphoserine 473 content of Akt over vehicle injected controls” value was 48%. Moreover, the IGF-IRβ phosphorylation entry in data set [1] (10 nM insulin) is listed as “remained unchanged”; in data set [1] (100 nM insulin, comparator 1.3 nM IGF-1), “increased”. In addition, the “activation of the IR and Akt kinase pathway” value in data set [2] (0.0325 U/100 g insulin, subconjunctival space, normal rats) is given as “activated”. For the same substance, in data set [2] (subconjunctival insulin, FIG. 8), the “retinal IRβ PY content, insulin eye compared to contralateral vehicle eye” value is given as “phosphorylated”. In addition, the “effect on blood glucose values” in data set [3] is listed as “without lowering blood glucose values”. Besides, the “retinal IRβ phosphotyrosine immunoreactivity, fold greater than baseline” value in data set [4] (30 minute time point) is recorded as 3 fold. For the same substance, the “retinal IRβ phosphotyrosine immunoreactivity, fold greater” value in data set [4] (within 2 minutes of stimulation, normalized to total IRβ) was roughly 4 fold. For the same substance, in data set [4] (2, 5, 15 and 30 minutes, normalized to total IRβ), the “retinal explant IRβ phosphorylation (qualitative)” value is “significant increase”. Also, the “time of peak muscle IRβ phosphotyrosine increase” value in data set [5] (fasted rats) was 30 min. Moreover, in data set [5] (fasted rats, 15 minutes post-injection, zero time point set to 1), the “increase in phosphotyrosine content in muscle IRβ (PY/IRβ ratio)” value is recorded as roughly 30 fold. The “muscle IRβ phosphorylation response (qualitative)” value in data set [5] (15, 30, 45 and 60 minutes post injection) was “robust response; also recorded: significant increase”. Besides, the “time of maximal retinal IRβ tyrosine phosphorylation” value in data set [6] was 45 min. In addition, in data set [6], the “time until retinal IRβ tyrosine phosphorylation increased” value was 30 min.
